{"source": "patent US11827701B2", "about": "“IL-6 binding molecules” (argenx BV, priority 2012, dated 2023)", "molecules": {"B1": {"name": "24C9: antagonistic IL-6-specific Fab clone from immunized llama (antibody, listed as Lama glama, V domains shown)", "VH": "QVQLVESGGGLVQPGGSLRLSCAASGFTFSSYRMYWVRQPPGKGLEWVSAISAGGGSTYYGDSVKGRFTISRDNAKNTVYLQMNSLKPEDTALYYCKKSTWADGESDYWGQGTQVTVSS", "VL": "QTVVTQEPSLSVSPGGTVTLTCGLSSGSVTASNYPGWFQQTPGQAPRALIYSTNDRHSGVPSRFSGSISGNKAALTITGAQPEDEADYYCALDIGDITEFGGGTHLTVLG"}, "B2": {"name": "18C11: antagonistic IL-6-specific Fab clone from immunized llama (antibody, listed as Lama glama, V domains shown)", "VH": "EVQLVESGGGLVQPGGSLRLSCAASGFTFSSYAMSWVRQAPGKGLEWVSAINSGGGSTSYADSVKGRFTISRDNAKNTLYLQMNSLKPEDTAVYYCAKEGDTGWKDPMYDYWGQGTQVTVSS", "VL": "QSVVTQPSALSVTLGQTAKITCQGGGLRSSYAHWYQQKPGQAPVLVIYDDDSRPSGIPERFSGSSSGGRATLTISGAQAEDEGDYYCQSADSSGNAAVFGGGTHLTVLG"}, "B3": {"name": "28C6: antagonistic IL-6-specific Fab clone from immunized llama (antibody, listed as Lama glama, V domains shown)", "VH": "QVQLVESGGGLVQPGGSLRLSCAASGFTFSNYYMTWVRQAPGKGLEWVSSIYSFSGDTAYADSVKGRFTISRDNAKNTLYLQMNKLKSEDTAVYYCTRDLGGVVVTANGYDYWGQGTQVTVSS", "VL": "DIVMTQTPSSLSASLGDRVTITCQASQSISTELSWYQQKPGQTPKLLIYGASRLQTGVPARFSGSGSGTSFTLTISGLEAEDLATYYCLQDYSWPYSFGSGTRL"}, "B4": {"name": "20A4: antagonistic IL-6-specific Fab clone, parental of 68F2 (antibody, listed as Lama glama, V domains shown)", "VH": "EVQLQESGPGLVKPSQTLSLTCTVSGGSITTRYYAWSWIRQPPGKGLEWMGVIDYDGDTYYSPSLKSRTSISWDTSKNQFSLQLSSVTPEDTAVYYCARDPDVVTGFHYDYWGQGTQVTVSS", "VL": "ALNFMLTQPPSVSGTLGKTVTISCAGTSSDIGGYNYVSWYQQLPGTAPKLLIHRVSTRASGIPDRFSGSKSGNTASLTISGLRSEDEANYYCASYRNFNNAVFGGGTQLTVLG"}, "B5": {"name": "24E9: antagonistic IL-6-specific Fab clone from immunized llama (antibody, listed as Lama glama, V domains shown)", "VH": "EVQLVESGGGLVQPGGSLRLSCAASGFTFSTYAMSWVRQAPGKGPEWVSRISSGGGSTNYADSVKGRFTISRDNAKKTLYLQMKSLKPEDTAVYYCANRAGWGMGDYWGQGTQVTVSS", "VL": "QTVVTQEPSLSVSPGGTVTLTCGLSSGSVTASNYPGWFQQTPGQAPRALIYSTNDRHSGVPSRFSGSISGNKAALTITGAQPEDEADYYCALDIGDITEFGGGTHLTVLG"}, "B6": {"name": "18F8: antagonistic IL-6-specific Fab clone from immunized llama (antibody, listed as Lama glama, V domains shown)", "VH": "EVQLVESGGGLVQPGGSLRLSCAASGFTFSRNAMSWVRQAPGKGLEWVSAINSGGGSTSYADSVKGRFTISRDNAKNTLYLQMNSLKPEDTAVYYCAKEGYTGWKDPMYDYWGQGTQVTVSS", "VL": "QSALTQPSALSVTLGQTAKITCQGGSLGSRYAHWYQQKPGQAPVLVIYDDDSRPSGIPERFSGSSSGGRATLTISGAQAEDEGDYYCQSADTSEHIVFGGGTHLTVLG"}, "B7": {"name": "18C9: antagonistic IL-6-specific Fab clone from immunized llama (antibody, listed as Lama glama, V domains shown)", "VH": "EVQLVESGGGLVQPGGSLRLSCAASGFTFSRNAMSWVRQAPGKGLEWVSAINSGGGSTSYADSVKGRFTISRDNAKNTLYLQMNSLKPEDTAVYYCAKEGYTGWKDPMYDYWGQGTQVTVSS", "VL": "LNFMLTQPSALSVTLGQTAKITCQGGSLGSRYAHWYQQKPGQAPVLVIYDDDSRPSGIPERFSGSSSGGRATLTISGAQAEDDGDYYCQSADSSGNASVFGGGTHLTVLG"}, "B8": {"name": "CNTO 136 (antibody, chains of the INN, looked up, V domains shown)", "VH": "EVQLVESGGGLVQPGGSLRLSCAASGFTFSPFAMSWVRQAPGKGLEWVAKISPGGSWTYYSDTVTGRFTISRDNAKNSLYLQMNSLRAEDTAVYYCARQLWGYYALDIWGQGTTVTVSS", "VL": "EIVLTQSPATLSLSPGERATLSCSASISVSYMYWYQQKPGQAPRLLIYDMSNLASGIPARFSGSGSGTDFTLTISSLEPEDFAVYYCMQWSGYPYTFGGGTKVEIK"}}, "key": {"[1]": {"target": "biotinylated (prokaryotic) IL-6 (Homo sapiens, UniProt P05231)", "sequence (P05231 30-212)": "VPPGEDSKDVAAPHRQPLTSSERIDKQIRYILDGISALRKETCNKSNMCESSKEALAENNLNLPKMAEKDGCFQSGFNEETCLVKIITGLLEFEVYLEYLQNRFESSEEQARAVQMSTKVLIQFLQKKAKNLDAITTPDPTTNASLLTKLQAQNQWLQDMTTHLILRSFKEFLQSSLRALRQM", "test": "Surface plasmon resonance (Biacore), biotinylated IL-6 captured on streptavidin sensor chip", "format": "binding", "settings": "purified Fab", "protocol": "The binding kinetics of IL-6-specific Fabs that were able to cross-compete with the B-E8 antibody was assessed using surface plasmon resonance (Biacore). Specifically, biotinylated (prokaryotic) IL-6 was captured on a streptavidin biacore sensor chip (CM5-SA) and different concentrations of purified Fabs were injected during 3 minutes following by a 5 minute wash with buffer. From the washing phase the off-rate (kd) was determined, while from the injection phase the on-rate (ka) was calculated using the concentration and off-rate as parameters. […] The binding kinetics of antagonistic purified Fabs (Table 3) and periplasmic fractions of Fab-expressing bacteria (Table 4) were also evaluated by surface plasmon resonance (Biacore) using both bacterially and eukaryotically produced human IL-6 directly coated on a CM5 chip. The Fabs tested had off-rates between 6×10^−4 and 2×10^−5 s^−1."}, "IL-6": {"tested_on": "IL-6", "test": "Serum amyloid A (SAA) mouse model, induction by injected IL-6", "format": "in vivo", "design": "SAA, Mean / SAA, Mouse1 / SAA, Mouse2 / SAA, Mouse3 / SAA, Mouse4 / SAA, Mouse5 / SAA, Mouse6: unit not given here", "settings": "0.1 μg IL-6; for SAA, Mean: mean of 6 mice", "protocol": "The in vivo efficacy of clones 68F2 and 61H7 was further investigated by measuring the ability of these antibodies to block serum amyloid A (SAA) induction in response to injected IL-6. General methods for performing this assay are set forth in WO2006/119115A2, which is hereby incorporated by reference in its entirety. […] Four hours after administration of the antibody, the mice were injected with 0.1 ug of IL-6. After a further 16 hours, blood was taken from the mice and the concentration of Serum Amyloid A was determined by ELISA. The dose responses are also graphically depicted in FIG. 13."}}}
{"molecule": "B1", "values": [{"measurement": "KA", "setting": "[1]", "result": "1.51e+09", "unit": "M⁻¹"}, {"measurement": "Rmax", "setting": "[1]", "result": 38.1, "unit": "RU"}, {"measurement": "ka", "setting": "[1]", "result": 133000, "unit": "M⁻¹ s⁻¹"}, {"measurement": "kd", "setting": "[1]", "result": "8.77e-05", "unit": "s⁻¹"}, {"measurement": "off-rates (range)", "setting": "[1]", "result": "~10^−5 s^−1"}, {"measurement": "Kd", "setting": "[1]; read-out: affinities", "result": 0.66, "unit": "nM"}]}
{"molecule": "B2", "values": [{"measurement": "KA", "setting": "[1]", "result": "7.05e+07", "unit": "M⁻¹"}, {"measurement": "Rmax", "setting": "[1]", "result": 22.1, "unit": "RU"}, {"measurement": "ka", "setting": "[1]", "result": 55200, "unit": "M⁻¹ s⁻¹"}, {"measurement": "kd", "setting": "[1]", "result": 0.000784, "unit": "s⁻¹"}]}
{"molecule": "B3", "values": [{"measurement": "KA", "setting": "[1]", "result": "4.04e+07", "unit": "M⁻¹"}, {"measurement": "Rmax", "setting": "[1]", "result": 22.6, "unit": "RU"}, {"measurement": "ka", "setting": "[1]", "result": 101000, "unit": "M⁻¹ s⁻¹"}, {"measurement": "kd", "setting": "[1]", "result": 0.0025, "unit": "s⁻¹"}]}
{"molecule": "B4", "values": [{"measurement": "KA", "setting": "[1]", "result": "1.72e+08", "unit": "M⁻¹"}, {"measurement": "Rmax", "setting": "[1]", "result": 48.2, "unit": "RU"}, {"measurement": "ka", "setting": "[1]", "result": 288000, "unit": "M⁻¹ s⁻¹"}, {"measurement": "kd", "setting": "[1]", "result": 0.00168, "unit": "s⁻¹"}]}
{"molecule": "B5", "values": [{"measurement": "KA", "setting": "[1]", "result": "8.38e+08", "unit": "M⁻¹"}, {"measurement": "Rmax", "setting": "[1]", "result": 41, "unit": "RU"}, {"measurement": "ka", "setting": "[1]", "result": 117000, "unit": "M⁻¹ s⁻¹"}, {"measurement": "kd", "setting": "[1]", "result": 0.000139, "unit": "s⁻¹"}]}
{"molecule": "B6", "values": [{"measurement": "KA", "setting": "[1]", "result": "6.18e+07", "unit": "M⁻¹"}, {"measurement": "Rmax", "setting": "[1]", "result": 51.5, "unit": "RU"}, {"measurement": "ka", "setting": "[1]", "result": 48400, "unit": "M⁻¹ s⁻¹"}, {"measurement": "kd", "setting": "[1]", "result": 0.000784, "unit": "s⁻¹"}]}
{"molecule": "B7", "values": [{"measurement": "KA", "setting": "[1]", "result": "4.67e+07", "unit": "M⁻¹"}, {"measurement": "Rmax", "setting": "[1]", "result": 49.9, "unit": "RU"}, {"measurement": "ka", "setting": "[1]", "result": 55600, "unit": "M⁻¹ s⁻¹"}, {"measurement": "kd", "setting": "[1]", "result": 0.00119, "unit": "s⁻¹"}]}
{"molecule": "B8", "values": [{"measurement": "SAA, Mouse1", "setting": "IL-6; Ab dose/mouse 0.31 μg", "result": 158}, {"measurement": "SAA, Mouse2", "setting": "IL-6; Ab dose/mouse 0.31 μg", "result": 175}, {"measurement": "SAA, Mouse3", "setting": "IL-6; Ab dose/mouse 0.31 μg", "result": 161}, {"measurement": "SAA, Mouse4", "setting": "IL-6; Ab dose/mouse 0.31 μg", "result": 134}, {"measurement": "SAA, Mouse5", "setting": "IL-6; Ab dose/mouse 0.31 μg", "result": 183}, {"measurement": "SAA, Mouse6", "setting": "IL-6; Ab dose/mouse 0.31 μg", "result": 171}, {"measurement": "SAA, Mean", "setting": "IL-6; Ab dose/mouse 0.31 μg", "result": 163.7}, {"measurement": "SAA, Mouse1", "setting": "IL-6; Ab dose/mouse 1.25 μg", "result": 107}, {"measurement": "SAA, Mouse2", "setting": "IL-6; Ab dose/mouse 1.25 μg", "result": 54}, {"measurement": "SAA, Mouse3", "setting": "IL-6; Ab dose/mouse 1.25 μg", "result": 67}, {"measurement": "SAA, Mouse4", "setting": "IL-6; Ab dose/mouse 1.25 μg", "result": 56}, {"measurement": "SAA, Mouse5", "setting": "IL-6; Ab dose/mouse 1.25 μg", "result": 62}, {"measurement": "SAA, Mouse6", "setting": "IL-6; Ab dose/mouse 1.25 μg", "result": 71}, {"measurement": "SAA, Mean", "setting": "IL-6; Ab dose/mouse 1.25 μg", "result": 69.5}, {"measurement": "SAA, Mouse1", "setting": "IL-6; Ab dose/mouse 5 μg", "result": 80}, {"measurement": "SAA, Mouse2", "setting": "IL-6; Ab dose/mouse 5 μg", "result": 80}, {"measurement": "SAA, Mouse3", "setting": "IL-6; Ab dose/mouse 5 μg", "result": 45}, {"measurement": "SAA, Mouse4", "setting": "IL-6; Ab dose/mouse 5 μg", "result": 55}, {"measurement": "SAA, Mouse5", "setting": "IL-6; Ab dose/mouse 5 μg", "result": 70}, {"measurement": "SAA, Mouse6", "setting": "IL-6; Ab dose/mouse 5 μg", "result": 84}, {"measurement": "SAA, Mean", "setting": "IL-6; Ab dose/mouse 5 μg", "result": 69.0}]}
